Laboratory results as given in article doi:10.1101/2021.09.24.461649 (bioRxiv, 2021).

Legend:
SEC = target: the molecule itself; assay: SEC
EccA1 ATPase, wild type = EccA1 ATPase, wild type (M. tuberculosis H37Rv, UniProt P9WPH9 1-573); assay: SPR
Sequence of EccA1 ATPase, wild type (P9WPH9 whole entry): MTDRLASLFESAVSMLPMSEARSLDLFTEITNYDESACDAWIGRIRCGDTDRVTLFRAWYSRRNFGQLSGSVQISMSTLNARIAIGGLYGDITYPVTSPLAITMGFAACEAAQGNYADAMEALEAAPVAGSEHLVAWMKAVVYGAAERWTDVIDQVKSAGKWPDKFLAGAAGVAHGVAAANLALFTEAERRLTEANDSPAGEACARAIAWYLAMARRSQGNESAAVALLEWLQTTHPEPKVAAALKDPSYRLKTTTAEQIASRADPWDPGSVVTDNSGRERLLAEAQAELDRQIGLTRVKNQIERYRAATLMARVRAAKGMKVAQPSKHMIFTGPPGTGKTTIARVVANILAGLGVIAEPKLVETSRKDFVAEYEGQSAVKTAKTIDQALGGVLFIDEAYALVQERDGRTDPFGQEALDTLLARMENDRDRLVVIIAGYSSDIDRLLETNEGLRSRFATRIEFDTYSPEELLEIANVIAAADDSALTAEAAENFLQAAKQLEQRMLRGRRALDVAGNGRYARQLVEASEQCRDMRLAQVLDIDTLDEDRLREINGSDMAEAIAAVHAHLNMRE

Binder | stoichiometry N (SEC) | Kd (EccA1 ATPase, wild type)
EspC-Δ20 truncated mutant (domain or fragment) MMTENLTVQPERLGVLASHHDNAAVDASSGVEAAAGLGESVAITHGPYCSQFNDTLNVYLTAHNALGSSLHTAGVDLAKSLRIA | 6 | –
EspC-Δ5 truncated mutant (domain or fragment) MTENLTVQPERLGVLASHHDNAAVDASSGVEAAAGLGESVAITHGPYCSQFNDTLNVYLTAHNALGSSLHTAGVDLAKSLRIAAKIYSEADEAWRKAID | 6 | ~6.7 µM
EspC (ESX-1 secreted protein C), wild type (natural protein) MMTENLTVQPERLGVLASHHDNAAVDASSGVEAAAGLGESVAITHGPYCSQFNDTLNVYLTAHNALGSSLHTAGVDLAKSLRIAAKIYSEADEAWRKAIDGLFT | – | ~0.14 µM
EspC-Δ10 truncated mutant (domain or fragment) MMTENLTVQPERLGVLASHHDNAAVDASSGVEAAAGLGESVAITHGPYCSQFNDTLNVYLTAHNALGSSLHTAGVDLAKSLRIAAKIYSEADEA | 6 | ~8.1 µM
